IntAct's records for PubMed 9687513

B1: Early protein (Human adenovirus C serotype 5 (HAdV-5)), P03255-2 (parent)
chain: MRHIICHGGVITEEMAASLLDQLIEEVLADNLPPPSHFEPPTLHELYDLDVTAPEDPNEEAVSQIFPDSVMLAVQEGIDLLTFPPAPGSPEPPHLSRQPEQPEQRALGPVSMPNLVPEVIDLTCHEAGFPPSDDEDEEGPVSEPEPEPEPEPEPARPTRRPKMAPAILRRPTSPVSRECNSSTDSCDSGPSNTPPEIHPVVPLCPIKPVAVRVGGRRQAVECIEDLLNEPGQPLDLSCKRPRP

Variants of: B1
Settings: with kat2b_human KAT2B

Variant	effect of a mutation on the interaction
E55A;D56A;P57A;N58A;E59A;E60A	decreasing interaction
